PMC12137173, “Cdc48 plays a crucial role in redox homeostasis through dynamic reshaping of its interactome during early stationary phase” (Redox Biology, 2025)

Biological target: T1, Shp1/Ubx1 (purified) (S. cerevisiae, UniProt P34223 1-423)
T1 construct: Shp1/Ubx1, UBX-family cofactor of Cdc48, S. cerevisiae; also called Shp1/Uxb1; source: purified
T1 sequence (looked up): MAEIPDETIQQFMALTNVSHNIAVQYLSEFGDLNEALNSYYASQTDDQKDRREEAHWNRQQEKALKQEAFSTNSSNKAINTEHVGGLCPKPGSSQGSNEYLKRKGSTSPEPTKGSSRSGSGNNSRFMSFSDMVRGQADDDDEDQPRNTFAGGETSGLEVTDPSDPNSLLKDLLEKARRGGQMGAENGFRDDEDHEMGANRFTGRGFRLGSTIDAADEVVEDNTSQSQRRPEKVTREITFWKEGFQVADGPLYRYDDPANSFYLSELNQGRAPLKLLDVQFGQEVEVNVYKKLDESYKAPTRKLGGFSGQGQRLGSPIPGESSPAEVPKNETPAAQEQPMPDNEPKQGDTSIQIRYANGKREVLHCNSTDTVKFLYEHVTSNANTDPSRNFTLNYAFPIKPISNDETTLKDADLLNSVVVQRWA
Assay: ITC; 25 °C; 220 μM Shp1 injected into 16 μM Cdc48-NTD (WT or C115S); 2 μL injections, 150 s spacing; Malvern MicroCal PEAQ-ITC
Settings: both partners purified

B1: Cdc48-NTD-WT (domain or fragment)
chain: MGEEHKPLLDASGVDPREEDKTATAILRRKKKDNMLLVDDAINDDNSVIAINSNTMDKLELFRGDTVLVKGKKRKDTVLIVLIDDELEDGACRINRVVRNNLRIRLGDLVTIHPCPDIKYATRISVLPIADTIEGITGNLFDVFLKPYFVEAYRPVRKGDHFVVRGGMRQVEFKVVDVEPEEYAVVAQDTIIHWEGEPINREDEENNMN
modifications: Construct limits are not printed. Taken by convention as the equivalent of human p97 N domain 1-199, using the +10 offset shown by Cys209 hVCP = Cys219 Cdc48.
A Kd of 14.2 µM was found for B1 in this work.
